These results are taken from patent US10829561B2, “Antibodies targeting quiescin sulfhydryl oxidase (QSOX1) and uses of same” (Yeda Research and Development Co. Ltd., priority 2015, dated 2020).

Positions count from the first letter of the chain named. “Also recorded” adds a separate entry of the source.

For assay [1], the system named is 4T1 murine mammary carcinoma. Kind of assay: Murine 4T1 breast cancer model, tumor volume. It is filed as in vivo, BALB/c female mice. Conditions: 8 mg/kg doxorubicin once a week, intraperitoneal, vs control mice. The procedure:
4T1 mCherry cells were suspended in Hanks' Balanced Salt Solution at a concentration of 2.5×10^6 cells/ml and mixed 1:1 with Cultrex® Basement Membrane Extract. 250,000 cells were injected into the mammary fat pad of 45 BALB/c female mice. Animals were divided into 5 groups containing 9 animals each (as depicted in Table 1B, below). Treatments were administered by intraperitoneal injection, beginning 3 days after cell injection. Tumor dimensions (x,y,z) were measured with a caliper twice a week. Tumor volumes were calculated according to: […]. Animals were weighed once a week. Twenty days post cell injection all animals were sacrificed by CO2 asphyxiation. Tumors and lungs were removed into 4% formaldehyde solution and prepared for histology.
The ability of an antibody inhibiting MmQSOX1 to control tumor growth and metastasis was evaluated in vivo in the 4T1 murine mammary carcinoma breast cancer model previously described [Pulaski and Ostrand-Rosenberg (2001) Mouse 4T1 breast tumor model. Curr. Protoc. Immunol. Chapter 20, Unit 20.2.]. Mice were injected with 4T1 cells together with matrigel, which aided in formation of a localized tumor, and then divided into five groups (as described in Table 1B, above). […] Tumor volumes were measured twice a week. Animals were sacrificed after 20 days, and their tumors and lungs were removed for evaluation.

The target in assay [2] is T1, MmQSOX1 (Mus musculus, UniProt Q8BND5).
T1 construct: Recombinant MmQSOX1 is truncated at the carboxy-terminus and so migrates faster than endogenous secreted MmQSOX1; made in house
T1 sequence (Q8BND5 36-550 limits assumed): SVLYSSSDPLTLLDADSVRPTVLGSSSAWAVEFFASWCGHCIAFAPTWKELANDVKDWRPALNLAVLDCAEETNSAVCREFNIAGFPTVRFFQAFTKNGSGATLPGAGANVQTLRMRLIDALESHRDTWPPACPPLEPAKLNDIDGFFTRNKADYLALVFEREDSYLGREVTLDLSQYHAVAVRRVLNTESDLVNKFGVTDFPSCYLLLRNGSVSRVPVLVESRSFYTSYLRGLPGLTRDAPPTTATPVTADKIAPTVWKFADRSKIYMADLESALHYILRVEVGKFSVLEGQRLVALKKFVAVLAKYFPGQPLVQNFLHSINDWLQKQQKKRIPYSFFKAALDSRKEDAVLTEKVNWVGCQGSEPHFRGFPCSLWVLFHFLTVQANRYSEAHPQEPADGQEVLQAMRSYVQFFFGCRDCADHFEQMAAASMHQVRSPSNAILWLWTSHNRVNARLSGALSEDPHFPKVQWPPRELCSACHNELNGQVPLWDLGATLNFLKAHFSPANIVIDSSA
Kind of assay: Oxygen consumption assay of QSOX1 activity and inhibition (DTT substrate). It is filed as biochemical. The note with it: 10:1 molar ratio of antibody to enzyme.

Assay [3] concerns the target T2, CpQSOX1 (Cavia porcellus, UniProt O08841).
T2 construct: The CpQSOX1 protein spans residues 34-547 of Cavia porcellus QSOX1; His-tag with thrombin site (inferred from the pET-15b vector, NdeI/BamHI cloning); made in house; host or cells: E. coli
T2 sequence (O08841 34-547): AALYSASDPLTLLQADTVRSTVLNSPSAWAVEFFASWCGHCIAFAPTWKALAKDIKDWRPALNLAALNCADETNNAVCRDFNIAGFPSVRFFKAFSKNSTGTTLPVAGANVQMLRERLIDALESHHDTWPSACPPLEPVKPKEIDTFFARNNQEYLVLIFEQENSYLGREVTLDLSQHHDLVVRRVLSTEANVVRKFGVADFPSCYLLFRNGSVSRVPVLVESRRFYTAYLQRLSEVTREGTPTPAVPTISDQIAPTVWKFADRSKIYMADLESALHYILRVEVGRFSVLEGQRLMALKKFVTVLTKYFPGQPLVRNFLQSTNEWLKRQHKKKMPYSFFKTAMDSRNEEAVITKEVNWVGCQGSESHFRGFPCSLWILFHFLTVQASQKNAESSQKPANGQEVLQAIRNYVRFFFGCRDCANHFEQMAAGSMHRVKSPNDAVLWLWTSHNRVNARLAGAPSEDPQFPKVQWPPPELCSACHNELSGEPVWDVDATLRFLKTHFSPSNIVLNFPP
The description is as above. It is filed as biochemical. The note with it: even at 1 μM antibody, 10:1 molar ratio of antibody to enzyme. The procedure:
(§1) Reactions were initiated by DTT injection, and oxygen consumption rates were obtained from initial slopes. […] Measurements were performed 3 times, and resulting rates were averaged. For each mutant, the rate in the presence of inhibitory antibody was divided by the rate in the absence of antibody to get percent activity.
(§2) Three mammalian QSOX1 enzymes, from common experimental organisms and having 78-79% sequence identity with HsQSOX1, were chosen: Mus musculus QSOX1 (MmQSOX1), Rattus norvegicus QSOX1 (RnQSOX1), and Cavia porcellus (CpQSOX1). Enzyme activity was assessed in an oxygen consumption assay on the model substrate dithiothreitol (DTT).

Assay [4] has as its target T3, RnQSOX1 (Rattus norvegicus, UniProt Q6IUU3).
T3 construct: made in house
T3 sequence (Q6IUU3 33-750): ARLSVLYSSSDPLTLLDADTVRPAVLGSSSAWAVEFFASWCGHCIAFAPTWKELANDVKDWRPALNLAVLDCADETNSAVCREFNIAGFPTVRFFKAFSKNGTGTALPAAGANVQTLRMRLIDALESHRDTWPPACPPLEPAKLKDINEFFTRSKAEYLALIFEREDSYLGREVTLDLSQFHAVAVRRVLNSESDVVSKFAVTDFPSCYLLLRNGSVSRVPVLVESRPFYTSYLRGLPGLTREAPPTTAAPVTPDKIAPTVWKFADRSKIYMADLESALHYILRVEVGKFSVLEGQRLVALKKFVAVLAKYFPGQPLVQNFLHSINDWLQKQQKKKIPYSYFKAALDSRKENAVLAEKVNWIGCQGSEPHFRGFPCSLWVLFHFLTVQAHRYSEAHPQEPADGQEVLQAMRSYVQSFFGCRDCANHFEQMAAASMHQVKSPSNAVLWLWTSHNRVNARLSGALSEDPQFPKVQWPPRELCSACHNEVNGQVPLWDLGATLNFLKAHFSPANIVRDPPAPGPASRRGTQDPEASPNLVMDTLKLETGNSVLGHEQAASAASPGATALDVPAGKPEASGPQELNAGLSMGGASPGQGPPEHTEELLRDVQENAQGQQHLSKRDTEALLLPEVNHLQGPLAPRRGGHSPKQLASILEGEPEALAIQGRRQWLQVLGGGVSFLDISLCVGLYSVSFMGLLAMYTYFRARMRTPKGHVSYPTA
Described as above. The assay is classed as biochemical. The note with it: even at 1 μM antibody, 10:1 molar ratio of antibody to enzyme. The procedure:
as §1, §2

The target of assay [5] is T4, MmQSOX1 A116P mutant (Mus musculus, UniProt Q8BND5).
T4 construct: made in house
T4 sequence (Q8BND5 36-550 A119P limits assumed): T1 sequence (Q8BND5 36-550 limits assumed) with A84P
Kind of assay: Oxygen consumption assay, MmQSOX1 mutant mimicking HsQSOX1. It is filed as biochemical. Conditions: 250 nM MAb492.1, 200 μM DTT. The procedure:
as §1
(§3) The first mutant, A116P, was inhibited by about 60% (FIG. 2D), and the second mutant, TLPG(138-141)VFPV, by about 50%.

The target in assay [6] is T5, MmQSOX1 TLPG(138-141)VFPV mutant (Mus musculus, UniProt Q8BND5, G141V/L139F/T138V).
T5 construct: made in house
T5 sequence (Q8BND5 36-550 T138V/L139F/G141V limits assumed): T1 sequence (Q8BND5 36-550 limits assumed) with T103V, L104F, G106V
Described as above. It is filed as biochemical. Conditions: 250 nM MAb492.1, 200 μM DTT. The procedure:
as §1, §3

The subject of assay [7] is mouse embryonic fibroblasts (MEFs). Briefly: Laminin immunostaining in mouse fibroblast cultures. The assay is classed as cell-based. Conditions: MEFs grown for three days in the presence of antibody. The procedure:
(§4) The assays were conducted essentially as previously described [Ilani T. et al. (2013), supra]. Instead of human fibroblasts, mouse fibroblasts were grown for three days in the presence of various antibodies. HEK 293T cells were used as adhering cells.
(§5) QSOX1 and laminin are secreted from quiescent fibroblasts into the ECM, where QSOX1 promotes laminin incorporation, and consequently the adherence of epithelial cells to the fibroblast monolayer. Thus, intact laminin networks in the ECM and cell adherence indicate functional QSOX1 activity in the ECM [Ilani T. et al. (2013), supra]. Inventors first verified that MmQSOX1 is secreted from confluent mouse embryonic fibroblasts (MEFs) (FIG. 4A). Next, extracellular laminin secreted by MEFs grown for three days in the presence of MAb492.1, MAb316.1, or MAb492gen was stained. […] A quantitative assay of epithelial cell adhesion to MEF monolayers was performed next. Fluorescently labeled epithelial cells were added to MEFs grown in the absence or presence of the antibodies, and adherent cells were quantified.

Assay [8] has the same test system. Kind of assay: Epithelial cell adhesion to mouse fibroblast monolayer. It is filed as cell-based. Conditions: 250 nM or 1 μM antibody; HEK 293T adhering cells. The procedure: as §4, §5
Assay [9] addresses T6, HsQSOX1 (Homo sapiens, UniProt O00391).
T6 construct: made in house
T6 sequence (O00391 33-546 limits assumed): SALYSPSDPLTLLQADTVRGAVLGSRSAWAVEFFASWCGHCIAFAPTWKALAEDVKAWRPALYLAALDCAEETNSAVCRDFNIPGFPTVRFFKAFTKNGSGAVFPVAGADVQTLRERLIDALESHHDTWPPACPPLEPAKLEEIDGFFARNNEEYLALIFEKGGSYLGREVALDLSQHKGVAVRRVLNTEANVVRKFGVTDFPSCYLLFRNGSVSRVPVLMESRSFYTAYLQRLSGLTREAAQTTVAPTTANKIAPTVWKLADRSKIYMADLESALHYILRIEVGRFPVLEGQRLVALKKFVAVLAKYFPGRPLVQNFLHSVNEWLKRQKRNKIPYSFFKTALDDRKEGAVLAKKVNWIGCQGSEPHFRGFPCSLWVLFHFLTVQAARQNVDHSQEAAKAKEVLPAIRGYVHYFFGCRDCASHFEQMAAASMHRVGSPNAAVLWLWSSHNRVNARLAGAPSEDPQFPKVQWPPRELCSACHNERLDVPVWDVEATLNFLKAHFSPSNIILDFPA
The note with it: Grossman I. et al. (2013); cited from earlier work.

Turning to `COc1cccc2c1C(=O)c1c(O)c3c(c(O)c1C2=O)C[C@@](O)(C(=O)CO)C[C@@H]3O[C@H]1C[C@H](N)[C@H](O)[C@H](C)O1` [doxorubicin, reference compound], in [1], the Tumor volume result was “smaller tumors than control mice”.

B1: MAb492.1: previously published inhibitory monoclonal antibody blocking the Trx CXXC redox-active site of human QSOX1 (antibody, V domains shown)
VL: DVVMTQTHKFMSTSVGDRVSITCKASQDVSTAVAWYQQKSGQSPKLLIHSASYRYTGVPDRFTGSGSGTDFTFTISSVQAEDLAVYYCQQHYSIPLTFGAGTKLELK
VH: QVQLKQSGPGLVAPSQSLSITCTVSGFSLTGYGVNWVRQSPGKGLEWLGMIWGDGRTDYKSALKSRLSITKDNSKSQVFLKMNSLQTDDTARYFCASDYYGSGSFAYWGQGTLVTVSA
On to B1, for which the “Inhibition of MmQSOX1 at 1 μM antibody” value in [2] is on record as “no effect; also recorded: No inhibition at 1 μM”. The “Effect on CpQSOX1 activity” value in [3] is “no effect”. Moreover, in assay [4], the “Effect on RnQSOX1 activity” value was “no effect”. Besides, the “Inhibition of MmQSOX1 A116P mutant” value in assay [5] is “about 60%”. Also, in assay [6], the “Inhibition of MmQSOX1 TLPG(138-141)VFPV mutant” value is “about 50%”. Also, in assay [7], the “Laminin network in ECM” value is “did not affect”. The “Epithelial cell adherence to MEF monolayer” value in [8] is on record as “did not affect”. In addition, the “Concentration inhibiting HsQSOX1 activity in vitro and in cell culture” value in assay [9] is “near-stoichiometric concentration”.
